According to article PMC2853022:

Biological target: NS3h (helicase domain of HCV NS3) (Hepatitis C virus, Con 1b replicon …, UniProt Q9WMX2 1192-1657)
Test: stopped-flow fluorescence

Chain of NS3h (helicase domain of HCV NS3) (Q9WMX2 1192-1657): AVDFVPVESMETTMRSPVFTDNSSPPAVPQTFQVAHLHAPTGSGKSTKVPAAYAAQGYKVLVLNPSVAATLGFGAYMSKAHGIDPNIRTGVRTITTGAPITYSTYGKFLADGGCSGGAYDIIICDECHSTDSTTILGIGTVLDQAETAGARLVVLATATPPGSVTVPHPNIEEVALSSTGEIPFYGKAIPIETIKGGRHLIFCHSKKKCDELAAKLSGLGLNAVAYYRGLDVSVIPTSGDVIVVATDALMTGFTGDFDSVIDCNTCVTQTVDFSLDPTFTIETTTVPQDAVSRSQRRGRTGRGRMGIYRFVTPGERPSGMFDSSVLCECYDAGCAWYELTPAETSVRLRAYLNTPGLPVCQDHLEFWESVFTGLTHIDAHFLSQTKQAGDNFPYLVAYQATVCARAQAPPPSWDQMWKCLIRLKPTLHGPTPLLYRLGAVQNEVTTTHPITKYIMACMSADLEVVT

B1: 37:22-mer partial duplex (dsDNA)
DNA 1: GACTGACGCTAGGCTGACAGGATTTTTTTTTTTTTTT
DNA 2: TCCTGTCAGCCTAGCGTCAGTC
Question: Does B1 bind?
Answer: binds
